As usually defined, the koff is the first-order rate constant of dissociation. For orientation: Kd means a measure of binding affinity in units of concentration. A lower Kd goes with higher affinity.

Experimental findings from US20080138349A1 are described below.

The target of one test is FcγRIIIA 158F, soluble (UniProt P08637). Description: BIAcore, 2B6 captured by soluble CD32B. Background: In SPR one partner is held on a chip, and binding of the other changes the refractive index at the surface.
Another test concerns the target FcγRIIIA 158V, soluble (UniProt P08637). Kind of test: BIAcore, 2B6 captured by soluble CD32B.
The target of test [1] is FcγRIIA 131H (CD32A H131), soluble dimeric Fc fusion (human) (UniProt P12318). Kind of test: method not given.
The target of test [2] is FcγRIIA 131R (CD32A R131), soluble dimeric Fc fusion (human) (UniProt P12318). Description: method not given.
Test [3] has as its target FcγRIIB (CD32B), soluble dimeric Fc fusion (human) (UniProt P31994). Description: method not given.
Test [4] addresses FcγRIIIA 158F (CD16A F158), soluble monomer (human) (UniProt P08637). Description: method not given.
The target in test [5] is FcγRIIIA 158V (CD16A V158), soluble monomer (human) (UniProt P08637). Kind of test: method not given.
The target of test [6] is FcγRIIIA 158F (CD16A F158), soluble monomer (human) (UniProt P08637). Description: value on CD16A 158F over value on CD32B.
In test [7] the target is FcγRIIIA 158V (CD16A V158), soluble monomer (human) (UniProt P08637). Kind of test: value on CD16A 158V over value on CD32B.
For test [8], the target named is FcγRIIA 131H (CD32A H131), soluble dimeric Fc fusion (human) (UniProt P12318). Description: value on CD32A 131H over value on CD32B.
Test [9] addresses FcγRIIB-Fc fusion protein, soluble dimeric: extracellular domain of FcγRIIB fused to the hinge-CH2-CH3 domain of human IgG2 (human) (UniProt P31994). Description: ELISA. (In general: In an ELISA, binding on a coated surface is turned into a signal by an enzyme label.)
For a further test, the target named is FcγRIIIA (UniProt P08637). Description: ELISA.
Test [10] has as its target FcγRIIB-Fc fusion protein, soluble dimeric: extracellular domain of FcγRIIB fused to the hinge-CH2-CH3 domain of human IgG2 (human) (UniProt P31994). Kind of test: BIAcore.
Test [11] has as its target soluble monomeric FcγRIIIA, the extracellular region of FcγRIIIA joined to the linker-AVITAG sequence (UniProt P08637). Kind of test: BIAcore.
In test [12] the target is FcγRIIB-Fc fusion protein, soluble dimeric: extracellular domain of FcγRIIB fused to the hinge-CH2-CH3 domain of human IgG2 (human) (UniProt P31994). Kind of test: BIAcore, antibody captured on BSA-FITC.
Test [13] has as its target soluble monomeric FcγRIIIA, the extracellular region of FcγRIIIA joined to the linker-AVITAG sequence (UniProt P08637). Kind of test: BIAcore, antibody captured on BSA-FITC.
The target is the same in test [14]. Description: yeast display FACS; 0.1 µM biotinylated FcγRIIIA-linker-avitag chased with unlabeled monomer.

Chain of FcγRIIA 131H (CD32A H131), soluble dimeric Fc fusion (human) (P12318 34-217): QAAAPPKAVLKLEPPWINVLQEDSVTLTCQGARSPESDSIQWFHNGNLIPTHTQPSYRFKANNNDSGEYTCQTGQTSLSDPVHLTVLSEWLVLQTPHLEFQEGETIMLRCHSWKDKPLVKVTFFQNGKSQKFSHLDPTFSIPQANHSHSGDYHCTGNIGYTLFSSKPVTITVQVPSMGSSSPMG
Chain of soluble monomeric FcγRIIIA, the extracellular region of FcγRIIIA joined to the linker-AVITAG sequence (P08637 17-208 limits assumed): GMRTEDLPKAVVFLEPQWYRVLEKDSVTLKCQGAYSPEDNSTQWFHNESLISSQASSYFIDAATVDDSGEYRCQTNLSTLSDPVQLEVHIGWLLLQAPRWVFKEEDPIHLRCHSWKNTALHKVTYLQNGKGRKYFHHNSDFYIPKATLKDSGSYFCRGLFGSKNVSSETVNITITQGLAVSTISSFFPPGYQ
Chain of FcγRIIIA 158F (CD16A F158), soluble monomer (human) (P08637 17-208): as the sequence (P08637 17-208 limits assumed) above
Chain of FcγRIIIA (P08637 17-208 limits assumed): as above
Chain of FcγRIIIA 158V (CD16A V158), soluble monomer (human) (P08637 17-208 F176V): as the sequence (P08637 17-208 limits assumed) above, with F160V counted along it
Chain of FcγRIIA 131R (CD32A R131), soluble dimeric Fc fusion (human) (P12318 34-217 H167R): as the sequence (P12318 34-217) above, with H134R counted along it
Chain of FcγRIIB-Fc fusion protein, soluble dimeric: extracellular domain of FcγRIIB fused to the hinge-CH2-CH3 domain of human IgG2 (human) (P31994 43-217 limits assumed): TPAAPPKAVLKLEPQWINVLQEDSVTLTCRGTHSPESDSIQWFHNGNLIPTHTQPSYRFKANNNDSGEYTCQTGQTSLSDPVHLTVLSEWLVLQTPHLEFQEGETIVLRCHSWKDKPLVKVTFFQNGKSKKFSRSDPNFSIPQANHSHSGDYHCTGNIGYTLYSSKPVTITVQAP
Chain of FcγRIIB (CD32B), soluble dimeric Fc fusion (human) (P31994 43-217): as the sequence (P31994 43-217 limits assumed) above
Chain of FcγRIIIA 158F, soluble (P08637 17-208 limits assumed): as the sequence (P08637 17-208 limits assumed) above
Chain of FcγRIIIA 158V, soluble (P08637 17-208 F176V limits assumed): as the sequence (P08637 17-208 limits assumed) above, with F160V counted along it

As for “ch-mAb 2B6 (chimeric anti-CD32B), wild-type IgG1 Fc (antibody)”, the koff came to 0.434 s⁻¹ with FcγRIIIA 158F, soluble and 0.192 s⁻¹ with FcγRIIIA 158V, soluble.
“Immunoglobulin with variant Fc region L235V, F243L, R292P, Y300L, P396L (antibody)”: the binding relative to wt (wt = 1) stood at 1.3 in test [1]; 0.4 in test [2]; 0.4 in [3]; 4.8 in test [4]; 6.1 in test [5]. The Ratio of Affinities 16A-158F:32B in [6] came to 12. Besides, the Ratio of Affinities 16A-158V:32B in [7] was 15. Also, in test [8], the Ratio of Affinities 32A-131H:32B stood at 3.3.
For the substance “ch4-4-20 antibody, wild-type Fc (chimeric anti-fluorescein, IgG1)”, the results for the ELISA, OD (in test [9]; with FcγRIIIA) were 0.4 OD and 0.5 OD, respectively. In the test with FcγRIIIA, the ELISA IIIA binding vs wt was determined as 1. For the same substance, the dissociation constant Kd was found to be 94 nM in test [10], 198 nM in test [11], 61.4 nM in test [12] and 319 nM in test [13].
Turning to “ch4-4-20 P396L (from UniProt P01857 1-330) (antibody)”, the ELISA binding increase vs wt with FcγRIIIA amounted to 1 x. The substance also gave a loss of cell staining after 1 minute with unlabeled FcγRIIIA in [14] of 50%.
With “Immunoglobulin with variant Fc region L235I, F243L, R292P, Y300L (antibody)”, the binding relative to wt (wt = 1) is 0.5 in test [1]; 0.1 in test [2]; 0.2 in [3]; 3.3 in test [4]; 2.6 in test [5]. In [6], the Ratio of Affinities 16A-158F:32B was found to be 16.5. Besides, the Ratio of Affinities 16A-158V:32B in [7] was 13. Besides, the Ratio of Affinities 32A-131H:32B in test [8] was found to be 2.5.
As for “Immunoglobulin with variant Fc region L234F, F243L, R292P, Y300L (antibody)”, the binding relative to wt (wt = 1) in [1] was 0.3; in test [2], 0.2; in test [3] it was 0.2; in [4] it was 1.6; in test [5], 1.7. For the same substance, in [6], the Ratio of Affinities 16A-158F:32B worked out at 8. For the same substance, the Ratio of Affinities 16A-158V:32B in test [7] amounted to 8.5. The Ratio of Affinities 32A-131H:32B in [8] was 1.5.
